What was measured:
[1] = system: MIAPACA2; test: Propidium iodide monolayer assay, MIAPACA2; type: cell-based, human; settings: MIAPACA2, four days
Protocol: (§1) Monolayer Assay Propidium Iodid (PI). Cells were harvested from exponential phase cultures, counted and depending on the cell line 3.000 to 20.000 cells were plated in 96-well flat-bottom microtiter plates After a 24 h recovery period to allow cells to resume exponential growth, 10 μl of culture medium (four control wells/plate) or culture medium with the test compound were added by a liquid handling robotic system and treatment continued for four days. Compounds were applied in half-log increments at 10 concentrations in duplicate. Three independent experiments were performed. Cells were then washed with 200 μl PBS to remove dead cells followed by addition of 200 μl of a solution containing 7 μg/ml propidium iodide (PI) and 0.1% (v/v) Triton X-100. After an incubation period of 1-2 h at room temperature, fluorescence (FU) was measured using the Cytofluor 4000 microplate reader (excitation λ=530 nm, emission λ=620 nm) to quantify the amount of attached viable cells. […]
(§2) CROMOC36—in vitro activity Human pancreatic carcinoma cell lines. […] Antitumor activity was assessed after four days of CROMOC36 treatment using a propidium iodide based monolayer proliferation assay. […]

[2] = system: PANC1; test: Propidium iodide monolayer assay, PANC1; type: cell-based, human; settings: PANC1, four days
Protocol: as §1, §2

[3] = system: M5076 ovarian reticulum sarcoma tumor cell line; test: M5076 artificial hepatic metastasis model, i.v. route
[4] = system: 80 different human tumor cell lines; test: Monolayer SRB staining assay for 72 hours, 80 human tumor cell lines; type: cell-based; settings: 55/80 cell lines, SRB 72 hours
Protocol: Cells were harvested from exponential phase cultures, and depending on the cell line 10.000 to 30.000 cells were plated in 96-well flat-bottom microtiter plates. After a 24 h recovery period to allow cells to resume exponential growth, supernatant was discarded and 100 μl of culture medium (eight control wells/plate) or culture medium with the test compound were added by a liquid handling robotic system (Microlab® Starlet, Hamilton) and treatment continued for 72 hrs. Compounds were applied at 9 concentrations eight wells/concentration). At least three independent experiments were performed. For SRB staining, cells were fixed with SRB01 for 1h at 4° C. (final concentration of TCA=10%) washed with a plate washer (Hydroflex, Tecan©) for five times with H2O; and stained with 100 μl of SRB02 at room temperature for 10 min following 4 washes in SRB03 and finally 100 μl of developer solution SRB04 for 5 minutes with shaking. Optical density was assessed using a plate-reader (Sunrise, Tecan©) at 540 nm. […]
To analyze the cytostatic activity in different tumor cell lines, the in vitro activity of CROMOC36 was analyzed in 80 different human tumor cell lines representing the mayor tumor indications by the Monolayer Sulphorhodamine B (SRB) staining assay for 72 hours.

[5] = system: Human hepatocellular carcinoma cell lines; test: Monolayer assay, human hepatocellular carcinoma cell lines, 96h treatment (geomean of three lines); type: cell-based
Protocol: Monolayer Assay Propidium Iodid (PI). Cells were harvested from exponential phase cultures, counted and depending on the cell line 3.000 to 20.000 cells were plated in 96-well flat-bottom microtiter plates After a 24 h recovery period to allow cells to resume exponential growth, 10 μl of culture medium (four control wells/plate) or culture medium with the test compound were added by a liquid handling robotic system and treatment continued for four days. Compounds were applied in half-log increments at 10 concentrations in duplicate. Three independent experiments were performed. Cells were then washed with 200 μl PBS to remove dead cells followed by addition of 200 μl of a solution containing 7 μg/ml propidium iodide (PI) and 0.1% (v/v) Triton X-100. After an incubation period of 1-2 h at room temperature, fluorescence (FU) was measured using the Cytofluor 4000 microplate reader (excitation λ=530 nm, emission λ=620 nm) to quantify the amount of attached viable cells. Concentrations required for 50% inhibition of cell growth (IC50) were calculated by non-linear regression (log[conc. of inhibitor]versus response (% T/C)) using the analysis software GraphPad Prism®, Prism 5 for windows, version 5.01 (GraphPad Software Inc., CA).
CROMOC36—in vitro activity Human hepatocellular carcinoma cell lines IC50 values of CROMOC36 and Sorafenib, 96h treatment. […] The individual results for CROMOC36 are included in FIG. 24. […] The individual results for Sorafenib are included in (FIG. 24).

[6] = system: HCT116 human colon carcinoma xenograft with null p53 (HCT116 p53−/−); test: HCT116 p53-/- xenograft, single agent and combination with cisplatin or vincristine; type: in vivo, female athymic nude mice
Protocol: A study was conducted to evaluate the efficacy and tolerability of CROMOC36 against an HCT116 human colon carcinoma xenograft model with null p53 (HCT116 p53−/−) in female athymic nude mice. CROMOC36 was administered subcutaneously (s.c.) three times at intervals of two weeks (q14dx3) as a single agent or in combination with cisplatin (CDDP) at 4 mg/kg or vincristine (VCR) at 2 mg/kg which were both administered five times at intervals of one week (q7dx5). CROMOC36 was tested at 32 mg/kg or using a decreasing dosage of 32-16-16 mg/kg. CDDP and VCR were also administered as single agents to allow comparison of the efficacy of CROMOC36 with commonly used anticancer drugs. The dose and schedule of CDDP and VCR treatments remained the same when tested as single agents or in combination with CROMOC36. […] Efficacy was also evaluated by measuring the tumor growth delay (TGD) and the number of regression responses.

[7] = system: PATU8988T; test: Propidium iodide monolayer assay, PATU8988T; type: cell-based, human; settings: four days
Protocol: as §1, §2

[8] = system: PAXF 1657L; test: Propidium iodide monolayer assay, PAXF 1657L; type: cell-based, human; settings: four days
Protocol: as §1, §2

[9] = system: DNA double strand breaks (Phospho-H2AX, Phospho-H3); test: Immunohistochemistry of liver specimens after single IV treatment; type: in vivo, Male Sprague Dawley Rats; settings: samples after 13-15 days
Source text: FIG. 8: Immunohistochemistry (IHC) analysis paraffin embedded liver specimens of Male Sprague Dawley Rats after single IV treatment with CROMOC36. Samples were collected after 13-15 days and IHC was used to assess the Histone surrogate-markers for DNA double strand breaks Phospho-H2AX and Phospho-H3 for analyzing the persistence of DNA double stand breaks (DSBs) at very high CROMOC concentrations in tumors in comparison to the KI67marker.
As a proof of the nuclease activity in vivo an Immunohistochemistry (IHC) analysis of paraffin embedded liver specimens of Male Sprague Dawley Rats after single IV treatment with CROMOC36.

B1: CROMOC36: single chain PvuII endonuclease fused at its C-terminus to DDM36, PEGylated final product used in the Examples (protein)
chain: MSHPDLNKLLELWPHIQEYQDLALKHGINDIFQDNGGKLLQVLLITGLTVLPGREGNDAVDNAGQEYELKSINIDLTKGFSTHHHMNPVIIAKYRQVPWIFAIYRGIAIEAIYRLEPKDLEFYYDKWERKWYSDGHKDINNPKIPVKYVMEHGTKIYGSGGSGGSSHPDLNKLLELWPHIQEYQDLALKHGINDIFQDNGGKLLQVLLITGLTVLPGREGNDAVDNAGQEYELKSINIDLTKGFSTHHHMNPVIIAKYRQVPWIFAIYRGIAIEAIYRLEPKDLEFYYDKWERKWYSDGHKDINNPKIPVKYVMEHGTKIYGNSGSGKKKKKGKGSGLGSGKKKDPLGSGLGSGKKKKKGKGSGLGSGKKKDPLGST
modifications: PEGylated; peptide, CROMOC36
- IC50 [1]: ~0.01 µM
- IC50 [2]: ~0.01 µM
- % ILS (mean survival time versus control group) ([3]; CROMOC36 16 mg/kg i.v. q7dx3, Doxorubicin 6 mg/kg q4dx3 (MTD)): 68%
- antimetastatic activity in Liver M5076 allograft ([3]; i.v. route, 16 mg/kg q7dx3): strong antimetastatic activity
- IC50 [4]: ≤ 0.1 µM
- potency compared to Sorafenib ([5]; geomean IC50 of three HCC cell lines): over 300 fold
- IC50 ([5]; three HCC cell lines, 96h treatment): 0.0141 µM
- tumor growth inhibition ([6]; CROMOC36 32 mg/kg s.c. q14dx3, single agent): 82.9%
- partial regression response ([6]; CROMOC36 32-16-16 mg/kg): one
- tumor-free survivor ([6]; CROMOC36 32-16-16 mg/kg): one
- tumor growth inhibition with respect to single-agent CROMOC36 ([6]; CROMOC36 32-16-16 mg/kg in combination with CDDP or VCR): did not change significantly
- persistence of inhibitory effect ([6]; CROMOC36 32-16-16 mg/kg, single agent or in combination with CDDP or VCR, three weeks after the last treatment): persisted until day 50
- tumor growth inhibition ([6]; CROMOC36 decreasing 32-16-16 mg/kg s.c. q14dx3, single agent): 91.6%
- % TGD (tumor growth delay) ([6]; endpoint tumor volume of 1000 mm^3, CROMOC36 as single agent or in combination): > 117%
- time to study endpoint (TTE) ([6]; endpoint tumor volume of 1000 mm^3, control Day 23, CROMOC36 as single agent or in combination): > 50 days
- IC50 [7]: 0.00279 µM
- IC50 [8]: 0.00473 µM
- DNA double strand breaks in liver (Phospho-H2AX, Phospho-H3 IHC) [9]: DSBs are induced

— US20250295796A1, “CELL PENETRATING POLYPEPTIDES (CPPS) AND THEIR USE IN HUMAN THERAPY” (RDP PHARMA AG, priority 2021, published 2025)
